Test results from the domain aggregation screens of Martell et al. (2025).

Assay: soluble fraction after stress (log2 fold change); higher = more stays soluble; pooled small domains, quantitative proteomics
Details: stress: pH 4
In short: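 Values are on a log2 scale, where higher means more of the domain stayed soluble after pH 4 stress. They are fold changes in the soluble amount of each domain from pooled custom libraries, measured by high-throughput quantitative proteomics. The fold change is taken to reflect aggregation propensity.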

| Sequence | soluble fraction (log2) |
| --- | --- |
| HMKPDIETQLKKYRYKVSVSKKIKPYMVFSDKTLSELLTKSPTNLKELEDINGFGPVKVQEYGAAILEILK | 0.148 |
| HMKPDSEFTSQDLWQNDLAGTGSAAYRRDKMGALLGIGYGNAKRFLERLNSYGVTRSEFDEALAQLGE | 0.134 |
| HMKPEDIALLEEIRDLLKEKKSVIVNLEYVNKDVARRIVDFISGGVFALNGHIQKVSNSIFLVAPMN | -0.26 |
| HMKPMNNNDILRRLRYTFDLSDDKMMETFALGGYEANRSEISDWLKKDDHPEQKSLYDKSLSHFLNGFIV | -0.085 |
| HMKPPVQVIGKAVVTASSLNVRTGPGTGHGIITSLPRNTEVELLEQQGEWYKIRRGSTVGYVHGGYLKIN | -0.095 |
| HMKPRISMITLGVKDLNKSIEFYGGGLGFPRKKTEPEIAIFKLNGSWLSLYNRGLLAEDANVS | 0.347 |
| HMKPSKYTLAIDSIPVHVTRKQMKSIRLRVTPLGEVRVSAPYGVKDSEIVEMVRSRKLWIESQQRA | -0.0235 |
| HMKPSTETLYATARINVRAAADTSAEKLGSIEMGEAVVRTGTDGDWSIIEYNGSTGYVKSEYLTANAGDAT | -0.188 |
| HMKPSVEIKVNGGTGAGVVKKGGSITVTANEPAEGKVFTGWQDESGKIVSTQKEYTFTVAEGTTLTAVYED | -0.417 |
| HMKPTGWVRGDMGVVDKGQLSITQGTVNVRSGPGLSYEILDQVRRGDRFPVIKSQSGWHNISM | 0.361 |
| HMKPTSLLGIERYLGSGLIRGVGPSTAKQIVEHFGMETMEVLTEHPERLQEVHGMGRKRWRQIAESFQEQQ | -0.0617 |
| HMKPVTVINFVGMTEEKAMTEAEKLGLVVGASSSEYSDEPAGTVIRQSISVSTEAKTGDNIYFTVSKGPE | -0.416 |
| HMKQETLNEIGTKIRKLRESKNLSIQEFADKLEMEYNNVIRIEKGRTNFTIGTLVKIANSLEVNLKDI | -1.01 |
| HMKQFVVQYYGIDGEVINSVYKNGMSDLTSYEPEKIDGKNFKGWSLSEDSKKVIDENYRINSDVNLYAVYT | 0.15 |
| HMKQHPTIDLQIGQKLHYKEDVFEVTRFAKDKNGQDMVILKDPSIGSGIEIPWYRSKLEEIIESGQYKIT | -0.113 |
| HMKQIEEIIARYTNENTPLMMILSDVQREYGYIPLDVQELISEKTGIPVAEIYGVVTFYSFFSL | -0.337 |
| HMKQISQNIHRLRKEKGMSQEQLAQALHVTRQTVSAWERGIAQPSLDVLGQIAQLLGVEPERLLYGE | -0.16 |
| HMKQLQIPYSFAKRHGVLLRYEGDQAFIVRRDNTSMLALQEARRLLGHPAHYLLYSEQEFNQLLSASFA | -0.455 |
| HMKQLVVVPRVVSLSEGKAREDVGDRGLVVDRVEMDTLRTPYENTVTRQEPAADSRVPVGTRVTLWISPGV | -0.0648 |
| HMKQNSDDGEIRKIIIEILDNNLDNVNKYKSGRTNVLDFFVGQVMKQTRGQANPELTRSILTEELSN | 0.00746 |
| HMKQQTRAELLDEFAKAHAERGLYFNRDYEQGEIQALQPDKAREYLQSALEARTERQQASEQDR | 0.266 |
| HMKQTDQELAEMLRFRAAQRGLLMSDEVVNYVMTRVERSAKSLIMLLDRIDRAALAQARPVTIPLINEL | -0.606 |
| HMKQVEVPRLVGLTLREAQAVLGQVGLRIGLISRAALLASPREQIVEQIPVAGERNIATPYVNLLVNVP | -0.324 |
| HMKRDEYIAQLKKYLKRLPKKEYDSAIEYFTEYFDEAGPERELEVIQELGQPKEAAKEMLLQLLNE | -0.506 |
| HMKRDNETRRRIVAAAEELFRAKGLDGVNMRELAEMAGVNKGLLHYYFKTKQALFREILVGQMAL | -0.0908 |
| HMKRDRLYGITIYLLNHGRTSAKTLAEYFEVSVRTIQRDMDALSMAKIPIIAYPGSDGGYEIQEGYRL | -0.37 |
| HMKRDYELPAFIETYLKKNHVAIDTKSAAMIAEHIGADLSRLISELDKVMISLPDDDRRVTPDVVEREI | -0.436 |
| HMKREETLKALATKNANYVARSGRRYSFEPMNPYERRIIHTAVQEIEGVTSRSIGSGMDRRVLIEPEGGV | -0.234 |
| HMKRELFVEPGMRLEHTPSKTSGPVVSFIEGVIVVIKDQLGSEHRFDPVPGFFRHEGDLVALRSPLL | 0.044 |
| HMKRIDTILETFAKVHKHIPSKLILLGDGPELLDMRKIARSLHIEDDVLFLGKQDQVSKFYQMADLVLLL | 0.15 |
